{"source": "the supplement of paper PMC9732359", "note": "± gives the uncertainty stated by the source.", "data": [{"assay": "protein stability index of a GFP-peptide fusion (yeast GPS) (PSI 1-4); higher = more stable; sorted into four equal gates, so the index is relative within each strain", "conditions": "pdr5∆", "procedure,_shortened": "(§1)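 Plasmids isolated from each sorting gate were PCR-amplified and Illumina-sequenced, and barcodes assigned the reads to strains. The gates, four of equal size, were set by GFP/Cherry fluorescence ratio on mid-log cultures in leucine-free medium. These cultures were yeast carrying a pooled library of tiled 17-residue yeast protein peptides fused downstream of GFP on a plasmid that also expresses Cherry. The protein stability index is the sum of every gate's read frequency times its gate number.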", "values": [{"sequence": "DKKEMTIYNNIREGQNQ [SIR3]", "protein stability index": "3.37 ± 0.07"}, {"sequence": "DKKSCSVDDVLSALDHI [DPB4]", "protein stability index": "3.23 ± 0.089"}, {"sequence": "DKQAEGTPLFTFGKKAD [YOR098C/NUP1]", "protein stability index": "2.43 ± 0.078"}]}, {"assay": "protein stability index of a GFP-peptide fusion (yeast GPS) (PSI 1-4); higher = more stable; sorted into four equal gates, so the index is relative within each strain", "conditions": "san1∆", "procedure,_shortened": "as §1", "values": [{"sequence": "ATVVSTNHSAAASTPTT [PGD1]", "protein stability index": "2.98 ± 0.035"}, {"sequence": "AVDNCAICRNHIMEPCI [HRT1]", "protein stability index": "2.02 ± 0.086"}, {"sequence": "AVFYTPKELGGLGMISA [PRP8]", "protein stability index": "2.4 ± 0.1"}, {"sequence": "AVIESVVNQPTGKIVDV [FAS1]", "protein stability index": "2.52 ± 0.089"}, {"sequence": "AVKTAETGYMSRRLMKS [RPO31]", "protein stability index": "2.52 ± 0.25"}, {"sequence": "AVLSYYKVDAEGKVTKL [RPS31]", "protein stability index": "3.03 ± 0.083"}, {"sequence": "AVNSIMALKFVSIKFTN [ECM29]", "protein stability index": "2.87 ± 0.13"}, {"sequence": "AVNWQDKQGWTPLFHAL [NAS6]", "protein stability index": "2.4 ± 0.092"}, {"sequence": "AVPAATPANTNNSTSNA [SWI1]", "protein stability index": "2.65 ± 0.053"}, {"sequence": "AVSEKAGHQTSAESWGT [RPL4A]", "protein stability index": "1.71 ± 0.11"}, {"sequence": "AWGALITTFVKRSTVPL [YML103C/NUP188]", "protein stability index": "2.49 ± 0.076"}, {"sequence": "AYELRTKSKEQLASQLV [RPL35A]", "protein stability index": "2.93 ± 0.067"}, {"sequence": "AYSSRFQTPFRRRREGK [RPL5]", "protein stability index": "2.58 ± 0.082"}, {"sequence": "CAACHSLDRVAWRTLVG [CYT1]", "protein stability index": "1.34 ± 0.1"}, {"sequence": "CAFLLTKIKDAEEDSLL [YJL039C/NUP192]", "protein stability index": "3.08 ± 0.11"}, {"sequence": "CEINYYEILLKILITYG [SRB8]", "protein stability index": "1.17 ± 0.1"}, {"sequence": "CFCEDHCDKCSVVLTLQ [RPB3]", "protein stability index": "2.42 ± 0.19"}, {"sequence": "CIFNFLQQQTPVTIWLF [SME1]", "protein stability index": "1.25 ± 0.084"}, {"sequence": "CIKKIMENNEPAMAMED [SRB8]", "protein stability index": "3.13 ± 0.059"}, {"sequence": "CILYDADESKMAKLNEC [RET1]", "protein stability index": "2.32 ± 0.1"}, {"sequence": "CISLSGVPNYLVQLEPH [SSN2]", "protein stability index": "2.29 ± 0.083"}, {"sequence": "CLDQMTEQFCATLNYID [SRB7]", "protein stability index": "2.99 ± 0.049"}, {"sequence": "CLENARSQISEKDAKIN [SIR4]", "protein stability index": "3.13 ± 0.066"}, {"sequence": "CLSDYTKKISNFNSSLH [YJL039C/NUP192]", "protein stability index": "1.72 ± 0.083"}, {"sequence": "CPEEFAESMCQELELPG [SNF5]", "protein stability index": "2.71 ± 0.07"}, {"sequence": "CRKCYARLPPRATNCRK [RPL40A]", "protein stability index": "3.13 ± 0.14"}, {"sequence": "CRNDAVNWLAYTYLYVR [BRR2]", "protein stability index": "3.18 ± 0.046"}, {"sequence": "CRVCSSHTGLIRKYGLN [RPS29A]", "protein stability index": "1.48 ± 0.15"}, {"sequence": "CSFAVTKSSLNDLDYDL [YML103C/NUP188]", "protein stability index": "3.01 ± 0.078"}, {"sequence": "CSHCGCVYVPNFNASLQ [SNM1]", "protein stability index": "3.13 ± 0.16"}, {"sequence": "CTKLAVYYSKRGFKVGL [SRP54]", "protein stability index": "2.23 ± 0.099"}, {"sequence": "CTNLTNRTLYELADLPK [GRR1]", "protein stability index": "2.92 ± 0.036"}, {"sequence": "CVKNHGQSSSIQSSLMT [YCS4]", "protein stability index": "2.83 ± 0.052"}, {"sequence": "CVNLSLFDARFERKNPH [SRB8]", "protein stability index": "3.34 ± 0.083"}, {"sequence": "CVVLGCERRSTLKLQDT [PRE6]", "protein stability index": "1.91 ± 0.13"}, {"sequence": "CWAVRADVHFLDCDGGF [RRP45]", "protein stability index": "2.9 ± 0.085"}, {"sequence": "CWLSSVDVNTQKSFEQL [RPN11]", "protein stability index": "1.4 ± 0.29"}, {"sequence": "CYLRWQHLRNEHGMNAP [SNF2]", "protein stability index": "3.4 ± 0.087"}, {"sequence": "DAENEWNVEKFKKDFEV [RPC40]", "protein stability index": "1.85 ± 0.16"}, {"sequence": "DANLNDLPETGFFENIE [IRR1]", "protein stability index": "3.35 ± 0.1"}, {"sequence": "DCIIRLPVKWETTTQFK [FAS1]", "protein stability index": "1.94 ± 0.091"}, {"sequence": "DDDERVEYNLFTNRSTM [BRN1]", "protein stability index": "3.11 ± 0.07"}, {"sequence": "DDDQIESLKKSPIFEVL [ARP9]", "protein stability index": "3.06 ± 0.033"}, {"sequence": "DDEKNDKQARKQRTKKE [SNF2]", "protein stability index": "3.06 ± 0.088"}, {"sequence": "DDFMHSETREKELESID [RPB4]", "protein stability index": "2.74 ± 0.12"}, {"sequence": "DDHNGEVWSVSWNLTGT [YGL100W/SEH1]", "protein stability index": "2.64 ± 0.096"}, {"sequence": "DDINKAKAVWENIIIVG [ARP9]", "protein stability index": "1.67 ± 0.092"}, {"sequence": "DDISRQVARTNLDGTKA [ROX3]", "protein stability index": "3.09 ± 0.087"}, {"sequence": "DDLALPYQHPPNIFPNL [ITC1]", "protein stability index": "3.43 ± 0.074"}, {"sequence": "DDSDNVMSSDDENAPVA [PRE10]", "protein stability index": "3.49 ± 0.11"}, {"sequence": "DDSSSDNDSLTDLESLS [SIR4]", "protein stability index": "3.09 ± 0.044"}, {"sequence": "DDVRDFVIRREVTKGEK [RPS6A]", "protein stability index": "3.08 ± 0.14"}, {"sequence": "DDYKDLTCSLYELYINK [IRR1]", "protein stability index": "3.16 ± 0.056"}, {"sequence": "DEADKMIDLGFEDQVTN [PRP28]", "protein stability index": "3.16 ± 0.11"}, {"sequence": "DEAEGRFEVINNETEQL [SMC1]", "protein stability index": "3.04 ± 0.14"}, {"sequence": "DEDEDNDLDEDDIYDIS [RPN4]", "protein stability index": "3.56 ± 0.11"}, {"sequence": "DEDKNFPRSRSRSRSSI [ESC2]", "protein stability index": "3.12 ± 0.14"}, {"sequence": "DEEAAGASTVMKTKTIN [PRP8]", "protein stability index": "3.28 ± 0.063"}, {"sequence": "DEEETAEGQTNSISDFL [RPN1]", "protein stability index": "2.94 ± 0.078"}, {"sequence": "DEKGNEIKVGKQRFQGC [ARP9]", "protein stability index": "3.06 ± 0.1"}, {"sequence": "DENAPVATNANATTDQE [PRE10]", "protein stability index": "3.4 ± 0.17"}, {"sequence": "DENGDKNDNGGKMNNEV [SWI3]", "protein stability index": "3.12 ± 0.044"}, {"sequence": "DENKASATSKPAFSFGA [YJL041W/NSP1]", "protein stability index": "3 ± 0.05"}, {"sequence": "DENPDLLGYTGIPTDKG [PRE8]", "protein stability index": "2.71 ± 0.05"}, {"sequence": "DERSQGEKNFTSAHLKL [SMC4]", "protein stability index": "3.14 ± 0.076"}, {"sequence": "DERTKEFEKKLQETLNK [YIL149C/MLP2]", "protein stability index": "2.88 ± 0.12"}, {"sequence": "DEVNDRSDISDSEGGLF [PCI8]", "protein stability index": "3.46 ± 0.072"}, {"sequence": "DFELEISWCSLSETNGL [PRE10]", "protein stability index": "2.84 ± 0.083"}, {"sequence": "DFKAKYCDSMGRPQRKM [RPB5]", "protein stability index": "3.22 ± 0.17"}, {"sequence": "DFNQAFEGTDDNEEASV [BRN1]", "protein stability index": "3.39 ± 0.15"}, {"sequence": "DFQPTELFDILSTSEDV [IRR1]", "protein stability index": "2.82 ± 0.074"}, {"sequence": "DGGKTLRACAANVDQIS [YMR129W/POM152]", "protein stability index": "2.94 ± 0.13"}, {"sequence": "DGLGNVVDFTSLPEELK [YMR129W/POM152]", "protein stability index": "3.3 ± 0.046"}, {"sequence": "DGLIAPGVRVSGEDVII [RPB2]", "protein stability index": "3.29 ± 0.16"}, {"sequence": "DGNNANYIYAGYENGML [RPN14]", "protein stability index": "2.79 ± 0.083"}, {"sequence": "DGSKMLKRADYTAVDTA [RPN14]", "protein stability index": "3.53 ± 0.036"}, {"sequence": "DGTSTEKTFLHLPCTIE [RPN8]", "protein stability index": "2.1 ± 0.065"}, {"sequence": "DGWVKLTYKSELSKSRA [YMR153W/NUP53]", "protein stability index": "1.95 ± 0.083"}, {"sequence": "DHAIVTSPTMPDYYVSI [RPT2]", "protein stability index": "2.58 ± 0.063"}, {"sequence": "DHGDGILLIDSEIARTY [RPN9]", "protein stability index": "3.29 ± 0.17"}, {"sequence": "DHNGVPFPQYPAGMNET [ITC1]", "protein stability index": "2.8 ± 0.19"}, {"sequence": "DIAFVLNNLPYKNEDVT [YCS4]", "protein stability index": "2.94 ± 0.037"}, {"sequence": "DICQIDTNAPVAATITS [SRB8]", "protein stability index": "2.36 ± 0.096"}, {"sequence": "DIFGANAASGSNSNVTN [YOR098C/NUP1]", "protein stability index": "1.64 ± 0.11"}, {"sequence": "DIILGQNIKAPSVKRQK [PRP8]", "protein stability index": "1.53 ± 0.16"}, {"sequence": "DIISGKIHSILPVMESL [YJR042W/NUP85]", "protein stability index": "2.84 ± 0.11"}, {"sequence": "DIPELSFFHQSNMQKSL [RPN3]", "protein stability index": "2.8 ± 0.068"}, {"sequence": "DIRDSSCQGNVIYRNSL [YMR129W/POM152]", "protein stability index": "3.38 ± 0.06"}, {"sequence": "DISGTMSGGGNHVAKGL [SMC4]", "protein stability index": "3.25 ± 0.13"}, {"sequence": "DIYSHEYKVITSLQGTY [YMR129W/POM152]", "protein stability index": "2.65 ± 0.075"}, {"sequence": "DKKEMTIYNNIREGQNQ [SIR3]", "protein stability index": "3.02 ± 0.041"}, {"sequence": "DKKSCSVDDVLSALDHI [DPB4]", "protein stability index": "3.31 ± 0.054"}, {"sequence": "DKQAEGTPLFTFGKKAD [YOR098C/NUP1]", "protein stability index": "2.5 ± 0.077"}]}]}
